± gives the uncertainty stated by the source.

Among the data in the Human Domainome abundance scans (Beltran et al. 2025) are abundance fitness values, retold here.

B1: POU domain, class 3, transcription factor 3, residues 320 to 388; numbered along this chain, P20264 (parent)
chain: DDLEQFAKQFKQRRIKLGFTQADVGLALGTLYGNVFSQTTICRFEALQLSFKNMCKLKPLLNKWLEEAD

The variants in the data set derive from B1. Briefly: abundance fitness (aPCA) (normalised: wild type 0, dead -1); higher = more abundant; growth selection in yeast, the domain comes from the species named. Particulars: Homo sapiens.
Consider DDREQFAKQFKQRRIKLGFTQADVGLALGTLYGNVFSQTTICRFEALQLSFKNMCKLKPLLNKWLEEAD, for which the abundance fitness is -0.937 ± 0.19. Take DDYEQFAKQFKQRRIKLGFTQADVGLALGTLYGNVFSQTTICRFEALQLSFKNMCKLKPLLNKWLEEAD: the abundance fitness was -0.242 ± 0.2. As to DDQEQFAKQFKQRRIKLGFTQADVGLALGTLYGNVFSQTTICRFEALQLSFKNMCKLKPLLNKWLEEAD, the abundance fitness was -0.421 ± 0.38. With DDFEQFAKQFKQRRIKLGFTQADVGLALGTLYGNVFSQTTICRFEALQLSFKNMCKLKPLLNKWLEEAD the figure was -0.454 ± 0.49; with DDVEQFAKQFKQRRIKLGFTQADVGLALGTLYGNVFSQTTICRFEALQLSFKNMCKLKPLLNKWLEEAD, -0.318 ± 0.11; with DDTEQFAKQFKQRRIKLGFTQADVGLALGTLYGNVFSQTTICRFEALQLSFKNMCKLKPLLNKWLEEAD, -0.981 ± 0.33. For DDEEQFAKQFKQRRIKLGFTQADVGLALGTLYGNVFSQTTICRFEALQLSFKNMCKLKPLLNKWLEEAD, the abundance fitness is -0.43 ± 0.31. DDPEQFAKQFKQRRIKLGFTQADVGLALGTLYGNVFSQTTICRFEALQLSFKNMCKLKPLLNKWLEEAD: the abundance fitness is -0.755 ± 0.24. As for DDWEQFAKQFKQRRIKLGFTQADVGLALGTLYGNVFSQTTICRFEALQLSFKNMCKLKPLLNKWLEEAD, the figure is -0.587 ± 0.17; as for DDGEQFAKQFKQRRIKLGFTQADVGLALGTLYGNVFSQTTICRFEALQLSFKNMCKLKPLLNKWLEEAD, -0.758 ± 0.18; as for DDIEQFAKQFKQRRIKLGFTQADVGLALGTLYGNVFSQTTICRFEALQLSFKNMCKLKPLLNKWLEEAD, -0.161 ± 0.27. For the variant DDAEQFAKQFKQRRIKLGFTQADVGLALGTLYGNVFSQTTICRFEALQLSFKNMCKLKPLLNKWLEEAD, the abundance fitness was -1 ± 0.32. Turning to DMLEQFAKQFKQRRIKLGFTQADVGLALGTLYGNVFSQTTICRFEALQLSFKNMCKLKPLLNKWLEEAD, the abundance fitness is -0.252 ± 0.14. Take DVLEQFAKQFKQRRIKLGFTQADVGLALGTLYGNVFSQTTICRFEALQLSFKNMCKLKPLLNKWLEEAD: the abundance fitness is -0.95 ± 0.5. DKLEQFAKQFKQRRIKLGFTQADVGLALGTLYGNVFSQTTICRFEALQLSFKNMCKLKPLLNKWLEEAD: the abundance fitness was 0.034 ± 0.12. For DWLEQFAKQFKQRRIKLGFTQADVGLALGTLYGNVFSQTTICRFEALQLSFKNMCKLKPLLNKWLEEAD, the abundance fitness was -0.111 ± 0.13. With DTLEQFAKQFKQRRIKLGFTQADVGLALGTLYGNVFSQTTICRFEALQLSFKNMCKLKPLLNKWLEEAD, the abundance fitness stood at 0.029 ± 0.13.

As for DRLEQFAKQFKQRRIKLGFTQADVGLALGTLYGNVFSQTTICRFEALQLSFKNMCKLKPLLNKWLEEAD, the abundance fitness was -0.176 ± 0.089.

In the case of DPLEQFAKQFKQRRIKLGFTQADVGLALGTLYGNVFSQTTICRFEALQLSFKNMCKLKPLLNKWLEEAD, the abundance fitness is -0.339 ± 0.23. With DQLEQFAKQFKQRRIKLGFTQADVGLALGTLYGNVFSQTTICRFEALQLSFKNMCKLKPLLNKWLEEAD the figure was -0.159 ± 0.13; with DALEQFAKQFKQRRIKLGFTQADVGLALGTLYGNVFSQTTICRFEALQLSFKNMCKLKPLLNKWLEEAD, 0.107 ± 0.16; with DSLEQFAKQFKQRRIKLGFTQADVGLALGTLYGNVFSQTTICRFEALQLSFKNMCKLKPLLNKWLEEAD, -0.119 ± 0.3. Consider DGLEQFAKQFKQRRIKLGFTQADVGLALGTLYGNVFSQTTICRFEALQLSFKNMCKLKPLLNKWLEEAD, for which the abundance fitness is -0.224 ± 0.081. In the case of DILEQFAKQFKQRRIKLGFTQADVGLALGTLYGNVFSQTTICRFEALQLSFKNMCKLKPLLNKWLEEAD, the abundance fitness was -0.238 ± 0.15. With DLLEQFAKQFKQRRIKLGFTQADVGLALGTLYGNVFSQTTICRFEALQLSFKNMCKLKPLLNKWLEEAD the figure was -0.272 ± 0.14; with DELEQFAKQFKQRRIKLGFTQADVGLALGTLYGNVFSQTTICRFEALQLSFKNMCKLKPLLNKWLEEAD, -0.031 ± 0.049; with DDLEQFFKQFKQRRIKLGFTQADVGLALGTLYGNVFSQTTICRFEALQLSFKNMCKLKPLLNKWLEEAD, -0.642 ± 0.2. With DDLEQFDKQFKQRRIKLGFTQADVGLALGTLYGNVFSQTTICRFEALQLSFKNMCKLKPLLNKWLEEAD, the abundance fitness was -0.694 ± 0.27. As for DDLEQFSKQFKQRRIKLGFTQADVGLALGTLYGNVFSQTTICRFEALQLSFKNMCKLKPLLNKWLEEAD, the figure is 0.117 ± 0.11. For DDLEQFVKQFKQRRIKLGFTQADVGLALGTLYGNVFSQTTICRFEALQLSFKNMCKLKPLLNKWLEEAD, the abundance fitness is -0.065 ± 0.068.

On to DDLEQFTKQFKQRRIKLGFTQADVGLALGTLYGNVFSQTTICRFEALQLSFKNMCKLKPLLNKWLEEAD, for which the abundance fitness is -0.069 ± 0.24. On to DDLEQFWKQFKQRRIKLGFTQADVGLALGTLYGNVFSQTTICRFEALQLSFKNMCKLKPLLNKWLEEAD, for which the abundance fitness was -0.87 ± 0.31. In the case of DDLEQFGKQFKQRRIKLGFTQADVGLALGTLYGNVFSQTTICRFEALQLSFKNMCKLKPLLNKWLEEAD, the abundance fitness is -0.478 ± 0.11.

Regarding DDLEQFLKQFKQRRIKLGFTQADVGLALGTLYGNVFSQTTICRFEALQLSFKNMCKLKPLLNKWLEEAD, the abundance fitness was -0.908 ± 0.36. With DDLEQFQKQFKQRRIKLGFTQADVGLALGTLYGNVFSQTTICRFEALQLSFKNMCKLKPLLNKWLEEAD, the abundance fitness is -0.703 ± 0.23. As for DDLEQFPKQFKQRRIKLGFTQADVGLALGTLYGNVFSQTTICRFEALQLSFKNMCKLKPLLNKWLEEAD, the figure is -0.722 ± 0.32; as for DDLEQFCKQFKQRRIKLGFTQADVGLALGTLYGNVFSQTTICRFEALQLSFKNMCKLKPLLNKWLEEAD, -0.198 ± 0.065; as for DDLEQFIKQFKQRRIKLGFTQADVGLALGTLYGNVFSQTTICRFEALQLSFKNMCKLKPLLNKWLEEAD, -0.057 ± 0.11. In the case of DDLEQFMKQFKQRRIKLGFTQADVGLALGTLYGNVFSQTTICRFEALQLSFKNMCKLKPLLNKWLEEAD, the abundance fitness is -0.737 ± 0.19. In the case of DDLEQFRKQFKQRRIKLGFTQADVGLALGTLYGNVFSQTTICRFEALQLSFKNMCKLKPLLNKWLEEAD, the abundance fitness was -0.69 ± 0.15. Consider NDLEQFAKQFKQRRIKLGFTQADVGLALGTLYGNVFSQTTICRFEALQLSFKNMCKLKPLLNKWLEEAD, for which the abundance fitness is 0.529 ± 0.33. Consider DDLEQFAHQFKQRRIKLGFTQADVGLALGTLYGNVFSQTTICRFEALQLSFKNMCKLKPLLNKWLEEAD, for which the abundance fitness was -0.306 ± 0.21.
